We go through two molecules from patent US20240190950A1, “METHOD OF TREATING DISEASES USING GREMLIN1 ANTAGONISTS” (SHANGHAI JIAO TONG UNIVERSITY, priority 2021, published 2024).

Assay [1] concerns LNCaP-PSA cells. Briefly: LNCaP-PSA reporter cell assay (PSA-low population, flow cytometry). It counts as cell-based, human. The note with it: dose dependent; day 7. From the text:
In order to assess the role of gremlin1 in modulating tumor prostate cell growth, we tested the antibodies provided herein in an assay involving prostate cancer cell LNCaP. This cell line was transfected with a PSA promoter driven GFP expression lentivirus plasmid. PSA is known as a differentiated marker of prostate cell and prostate cancer cells with low level of PSA represent poorly differentiated or undifferentiated prostate cancer cells. These cells usually have stem cell like property and have more aggressive growth property. The LNCaP reporter cell assay is briefly described below.
LNCaP-PSA cells were plated in 24-well plates at 10000/well in RPMI 1640/10% FBS (GIBCO), 1% P/S (complete media) and incubated at 37° ° C. and 5% CO2 overnight. The next day, remove media, 1 ug/ml human gremlin (ACRO) or human gremlin with serially diluted antibodies were added to the cells. Change medium every three days. On day 7, remove media from the wells, wash with PBS twice, run flow cytometer (Bechman) using FITC channel.

For assay [2], the target named is FGFR1 (Homo sapiens, UniProt P11362). Briefly: ELISA binding of DAN family proteins to FGFR1.
FGFR1, sequence (P11362 3-822 limits assumed): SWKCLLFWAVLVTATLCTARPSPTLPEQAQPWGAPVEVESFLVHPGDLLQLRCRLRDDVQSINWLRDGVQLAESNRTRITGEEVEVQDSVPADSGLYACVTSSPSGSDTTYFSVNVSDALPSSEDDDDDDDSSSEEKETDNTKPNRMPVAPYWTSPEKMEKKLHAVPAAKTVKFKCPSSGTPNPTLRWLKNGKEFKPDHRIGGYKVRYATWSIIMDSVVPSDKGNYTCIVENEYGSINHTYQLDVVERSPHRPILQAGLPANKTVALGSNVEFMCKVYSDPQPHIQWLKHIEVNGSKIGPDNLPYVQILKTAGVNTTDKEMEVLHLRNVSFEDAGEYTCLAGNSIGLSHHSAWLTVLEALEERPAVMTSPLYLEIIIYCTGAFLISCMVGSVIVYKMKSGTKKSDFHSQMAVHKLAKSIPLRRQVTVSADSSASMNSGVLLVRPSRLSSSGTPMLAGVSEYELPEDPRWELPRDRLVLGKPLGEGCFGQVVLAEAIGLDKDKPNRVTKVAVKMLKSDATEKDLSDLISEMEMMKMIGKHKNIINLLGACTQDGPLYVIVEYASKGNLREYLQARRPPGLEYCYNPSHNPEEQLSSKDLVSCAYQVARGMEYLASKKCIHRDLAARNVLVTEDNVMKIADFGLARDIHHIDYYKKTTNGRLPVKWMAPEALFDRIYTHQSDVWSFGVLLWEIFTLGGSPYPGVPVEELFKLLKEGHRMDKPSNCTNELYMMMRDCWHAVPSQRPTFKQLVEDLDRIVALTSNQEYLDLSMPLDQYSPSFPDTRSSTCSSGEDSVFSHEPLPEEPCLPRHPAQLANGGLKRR
Assay [3] concerns FGFR1/MEK/ERK signaling pathway. In words: FGFR1/MEK/ERK phosphorylation in PCa cell lines (immunoblotting). It counts as cell-based, human. The protocol: In order to test whether Gremlin1 promoted the FGFR-MAPK signaling, we first performed analysis of the expression levels of the four FGFRs in CRPC patients. […] We treated LNCaP and PC3 with GREM1 in different concentrations (1 ng/ml, 10 ng/ml, 100 ng/ml) and examined phosphorylation levels of FGFR1, MEK and ERK.
(§1) MAPK signaling can be activated through many membrane receptors besides FGFR. To test whether the activation of MAPK pathway by GREM1 was via FGFR, we constructed a FGFR1 knockout LNCaP subline by the CRISPR/Cas9 method. […] To further test whether the tumor promoting effect of GREM1 was through FGFR, we utilized small molecule inhibitors of FGFR or EGFR.
14E3 was tested to target GREM1 in human PCa.
(Immunoblotting shows a protein as a band on a membrane.)

The subject of assay [4] is PC3 cells. In words: Sphere formation, proliferation and apoptosis of PC3 cells. Conditions: 100 ng/ml GREM1 protein in culture medium. It counts as cell-based, human. An excerpt:
Metastatic prostate cancer is a devastating disease and most cancers progress upon serial treatments with either androgen receptor antagonist or chemotherapy. One of the key cell types resistant to these treatments are cells with stem cells like property which has the capability of forming tumor spheres in suspension culture. To explore the role of GREM1 in the progression of CRPC, we utilized AR independent CRPC cell line PC3, as well as the AR dependent PCa cell line LNCaP and LAPC4. We generated cell sublines with loss or gain of GREM1 expression (FIGS. 3A, 4A and 5A).
14E3 was tested to target GREM1 in human PCa. The affinity and specificity of this antibody to hGREM1 was verified by ELISA (FIG. 12A). […] This antibody potentiated the anti-tumor effect of Enzalutamide in AR dependent LNCaP cells (FIG. 12B, 12C, 10K, 10L).

The test system of assay [5] is PC-3 cells. Briefly: Scratch migration assay of PC-3 cells. The note with it: 1 μg/ml Gremlin, 3 days. It counts as cell-based, human. The protocol: PC-3 cells at log-growth phase were harvested and re-suspended in cell culture medium (DMEM medium supplied with 10% FBS). Cells were non-treated or treated with 1 μg/ml Gremlin or 10 μg/ml 14E3 or 10 μg/ml control mIgG2a for 3 days. Then cells were planted at 10^5 cells/well in 6-well cell culture plate. After cells reached 100% coverage of the bottom of wells, the medium was changed to serum free medium. Each well was made with one scratch using 200 μl-tip. The migration rate of cells were analyzed by calculating the area of cells growing on the scratch using Image J software.

Assay [6] relates to LNCaP cells. In words: GREM1-promoted PCa cell proliferation and sphere formation with FGFR1/MEK inhibitors or BMP4. The class given is cell-based, human.
Excerpt: as §1

B1: GREM1: gremlin1 protein, secreted BMP antagonist of the DAN family, added exogenously or immobilized (protein)
chain: KKKGSQGAIPPPDKAQHNDSEQTQSPQQPGSRNRGRGQGRGTAMPGEEVLESSQEALHVTERKYLKRDWCKTQPLKQTIHEEGCNSRTIINRFCYGQCNSFYIPRHIRKEEGSFQSCSFCKPKKFTTMMVTLNCPELQPPTKKKRVTRVKQCRCISIDLD
Regarding B1, the “percentage of the PSA-low LNCaP population” value in assay [1] was “increased”. Also, the “binding to FGFR1” value in assay [2] was “binds”. For the same molecule, the “time MAPK activation was maintained at a high level” value in assay [3] (Gremlin1 100 ng/ml, PC3 and LNCaP cells) was “up to 1 hour”. The “p-FGFR1, p-MEK1/2 and p-ERK1/2 levels” value in assay [3] (LNCaP and PC3, 1 ng/ml, 10 ng/ml, 100 ng/ml, dose dependent) was “increase”. In assay [4], the cell proliferation entry was “significant elevation” and the sphere formation result is “significant elevation”. Also, the “cell migration of prostate cancer cells” value in assay [5] is given as “accelerated”.

B2: BMP4: BMP ligand added to cells (protein, UniProt P12644 293-408, looked up)
Bone morphogenetic protein 4: SPKHHSQRARKKNKNCRRHSLYVDFSDVGWNDWIVAPPGYQAFYCHGDCPFPLADHLNSTNHAIVQTLVNSVNSSIPKACCVPTELSAISMLYLDEYDKVVLKNYQEMVVEGCGCR
Turning to B2, the “phosphorylation levels of FGFR1, MEK1/2 and ERK1/2 following GREM1 stimulation on addition of BMP4” value in assay [3] (BMP4 20 ng/ml, PC3 and LNCaP-resistance cells) was “did not alter”. Besides, in assay [6], the “proliferation promoting role of GREM1” value is listed as “not affected” and the “sphere-formation promoting role of GREM1” value is given as “not affected”.
